The text below walks through data of patent publication US20260234234A1 (QILU PUGET SOUND BIOTHERAPEUTICS, published 2026).

Like-named read-outs stand apart in the source and are kept apart here.

Assay [1] concerns the target T1, Avitag_c-MYC_His6_hTSLP QB11033 with deletion of 126KRRKR130 (human).
T1 chain: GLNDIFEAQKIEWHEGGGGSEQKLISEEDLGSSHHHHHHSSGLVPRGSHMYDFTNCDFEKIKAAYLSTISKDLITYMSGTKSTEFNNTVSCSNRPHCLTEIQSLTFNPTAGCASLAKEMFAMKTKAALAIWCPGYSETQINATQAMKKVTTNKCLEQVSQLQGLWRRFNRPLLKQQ
The assay can be described thus: cell-based or functional assay.

In assay [2] the target is Avitag_c-MYC_His6_hTSLP (wild type) QB11630 (human). The assay can be described thus: cell-based or functional assay.
The target of assay [3] is T2, Avitag_c-MYC_His6_hTSLP QB11631 with mutations of R127A + R130S (human). The experiment in a line: cell-based or functional assay.
Assay [4] deals with T2, Avitag_c-MYC_His6_hTSLP QB11631 with …. The experiment in a line: SPR (Biacore). For orientation: SPR reads the build-up and loss of mass on a sensor chip optically.
For assay [5], the target named is T3, Avitag_FLAG_His6_cyTSLP QB11632 (wild type) (cynomolgus monkey).
T3 chain: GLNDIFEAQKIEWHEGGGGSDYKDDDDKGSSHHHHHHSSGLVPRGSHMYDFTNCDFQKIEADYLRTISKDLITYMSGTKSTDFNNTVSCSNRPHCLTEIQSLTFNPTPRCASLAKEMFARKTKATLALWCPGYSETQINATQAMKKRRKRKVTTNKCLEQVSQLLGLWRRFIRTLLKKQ
The experiment in a line: cell-based or functional assay.

Assay [6] has as its target T4, Avitag_FLAG_His6_cyTSLP QB10974 with deletion of 126KRRKR130 (cynomolgus monkey).
T4 chain: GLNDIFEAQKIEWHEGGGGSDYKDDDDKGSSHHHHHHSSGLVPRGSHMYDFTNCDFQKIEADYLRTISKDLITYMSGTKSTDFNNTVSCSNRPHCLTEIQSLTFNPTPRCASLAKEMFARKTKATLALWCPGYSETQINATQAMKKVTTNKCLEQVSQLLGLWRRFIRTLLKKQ
The experiment in a line: cell-based or functional assay.

The target in assay [7] is T5, Avitag_FLAG_His6_cyTSLP QB11633 with mutations of R127A + R130S (cynomolgus monkey).
T5 chain: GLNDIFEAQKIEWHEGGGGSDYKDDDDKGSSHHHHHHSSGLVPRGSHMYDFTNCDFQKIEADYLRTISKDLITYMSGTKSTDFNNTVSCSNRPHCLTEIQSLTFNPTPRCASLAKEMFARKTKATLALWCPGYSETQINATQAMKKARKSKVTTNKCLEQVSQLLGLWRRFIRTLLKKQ
The experiment in a line: cell-based or functional assay.

Assay [8] deals with T2, Avitag_c-MYC_His6_hTSLP QB11631 with …. The experiment in a line: SPR (Biacore), hTSLP (R127A+R130S) antigen.
Assay [9] concerns the target T3, Avitag_FLAG_His6_cyTSLP QB11632 (wild …). The assay can be described thus: cell-based or functional assay.
Assay [10] deals with T4, Avitag_FLAG_His6_cyTSLP QB10974 with …. The experiment in a line: cell-based or functional assay.
For assay [11], the target named is T5, Avitag_FLAG_His6_cyTSLP QB11633 with …. The experiment in a line: cell-based or functional assay.
Assay [12] has as its target T1, Avitag_c-MYC_His6_hTSLP QB11033 with …. The experiment in a line: cell-based or functional assay.
Assay [13] has as its target Avitag_c-MYC_His6_hTSLP (wild type) QB11630 (human). The experiment in a line: cell-based or functional assay. The source holds these as a separate data set.
For assay [14], the target named is T2, Avitag_c-MYC_His6_hTSLP QB11631 with …. The experiment in a line: cell-based or functional assay. This is another data set of the same source.
Assay [15] concerns the target hTSLP antigen, version not stated (human, UniProt Q969D9 29-159, limits assumed). The assay can be described thus: cell-based or functional assay.
For assay [16], the target named is T6, Avitag_c-MYC_His6-tagged hIL-33 (Ser112-Thr270), QB10975 (human).
T6 construct: Entry includes N-terminal Avitag, c-MYC and His6 tags; reduced with DTT to the active form; also called active hIL-33; reduced hIL-33
T6 chain: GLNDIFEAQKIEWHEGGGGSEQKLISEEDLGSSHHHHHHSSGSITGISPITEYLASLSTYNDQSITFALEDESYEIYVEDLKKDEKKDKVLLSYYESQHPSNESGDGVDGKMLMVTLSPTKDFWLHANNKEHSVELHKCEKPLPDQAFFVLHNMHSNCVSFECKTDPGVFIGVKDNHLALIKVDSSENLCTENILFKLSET
The assay can be described thus: SPR, captured antibody, hIL-33 analyte, 37 C, 1:1 fit.

Assay [17] concerns the target T7, hIL-33 used in the cell-based assays of Example 13 (human, UniProt O95760 112-270).
T7 sequence (looked up): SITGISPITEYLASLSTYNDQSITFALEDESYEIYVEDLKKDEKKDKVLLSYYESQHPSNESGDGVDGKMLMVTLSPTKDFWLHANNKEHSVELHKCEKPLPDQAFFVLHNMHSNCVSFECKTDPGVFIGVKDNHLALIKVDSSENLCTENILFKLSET
The experiment in a line: cell-based or functional assay.

The target of assay [18] is T8, His6-tagged cyIL-33 (Ser112-Ile270), QB10976 (cynomolgus monkey).
T8 chain: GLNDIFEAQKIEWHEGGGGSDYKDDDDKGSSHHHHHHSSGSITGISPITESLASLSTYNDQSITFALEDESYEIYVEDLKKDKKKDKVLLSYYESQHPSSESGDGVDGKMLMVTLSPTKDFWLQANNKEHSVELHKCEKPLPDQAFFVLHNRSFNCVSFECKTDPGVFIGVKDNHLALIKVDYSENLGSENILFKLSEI
The experiment in a line: cell-based or functional assay.

Assay [19] deals with T8, His6-tagged cyIL-33 (Ser112-Ile270), …. The assay can be described thus: SPR, captured antibody, cyIL-33 analyte, 25 C, 1:1 fit.
Assay [20] has the same target. The experiment in a line: SPR, cyIL-33 analyte.
The target of assay [21] is T6, Avitag_c-MYC_His6-tagged hIL-33 …. The assay can be described thus: SPR competition, antibody titrated against 10 nM hIL-33, over immobilised hST2-Fc.

B1: anti-hTSLP antibody QB11341, humanized clone 135F1 (antibody, human IgG4 S228P, kappa, V domains shown)
VH: EVQLVESGGGLVQPGGSLRLSCAASGFDFSSYWISWVRQAPGKGPEWIASIDIDIDIADYASWAKGRFTISRDNSKNTLYLQMNSLRAEDTAVYYCVRNLGLWGPGTLVTVSS
VL: DIQMTQSPSSLSASVGDRVTITCQSSQNVYDKDALAWYQHKPGKRPKLLIYEASKLASGVPSRFSGSGSGTHFTLTISSLQPEDAATYYCAGTFIDNIYTFGGGTKVEIKR
notes: also called QB1341; top clone
On to B1, for which the “IC50 (nM) for inhibition of CCL17 secretion” value was determined as 0.361 nM in assay [1]; 0.333 nM in [2]; 0.626 nM in [3]; 0.888 nM in [5]; 0.712 nM in assay [6]; 0.93 nM in assay [7]. The “fold lower binding affinity against comparator antibody QB10985” value in assay [4] was about 10 fold. For the same molecule, in [8], the Kd (usually a measure of binding affinity in units of concentration) is 1.76 nM. For the same molecule, in assay [8], the off-rate constant (koff) (usually a measure of how fast the partners let go of each other) came to 0.00148 s⁻¹. For the same molecule, the kon (in general, the rate constant with which the complex forms) in assay [8] was 842000 M⁻¹ s⁻¹.

B2: anti-hTSLP antibody QB11548, humanized clone 135F1 after yeast display (antibody, human IgG4 S228P, kappa, V domains shown)
VH: EVQLVESGGGLVQPGGSLRLSCAASGFDFSSYWISWVRQAPGKGPEWIASIDIDIDIADYASWAKGRFTISRDNSKNTLYLQMNSLRAEDTAVYYCVRNLGLWGPGTLVTVSS
VL: DIQMTQSPSSLSASVGDRVTITCQSSQNVYDKDALAWYQHKPGKRPKLLIYEASRLASGVPSRFSGSGSGTHFTLTISSLQPEDAATYYCAGTRIDNIYTFGGGTKVEIKR
B2: the “IC50 (nM) for inhibition of CCL17 secretion” value was determined as 0.254 nM in assay [9]; 0.251 nM in [10]; 0.464 nM in [11]; 0.0921 nM in assay [12]; 0.0757 nM in assay [13]; 0.286 nM in assay [14].

B3: rabbit anti-hTSLP monoclonal antibody clone 135F1 (antibody, V domains shown)
VH: QEQLEESGGDLVKPEGSLTLTCKASGFDFSSYWISWVRQAPGKRPEWIACIDSDIDSADYASWAKGRFTMSRTSSTTVTLQMTSLTAADTATYFCVRNLGLWGPGTLVTVSS
VL: AQVLTQTASPVSAAVGGTVTINCQSSQNVYDKDALAWYQHKPGQRPKLLIYEASKLASGVPSRFSGSGAGTQFTLTISGVQCDDAATYYCAGTFIDNIYTFGGGTEVVVKG
B3: the “IC50, inhibition of hTSLP-induced CCL17 release from human monocytes” value in [15] is 4.24 nM.

B4: anti-hIL-33 IgG4 antibody QB11465 (antibody)
heavy: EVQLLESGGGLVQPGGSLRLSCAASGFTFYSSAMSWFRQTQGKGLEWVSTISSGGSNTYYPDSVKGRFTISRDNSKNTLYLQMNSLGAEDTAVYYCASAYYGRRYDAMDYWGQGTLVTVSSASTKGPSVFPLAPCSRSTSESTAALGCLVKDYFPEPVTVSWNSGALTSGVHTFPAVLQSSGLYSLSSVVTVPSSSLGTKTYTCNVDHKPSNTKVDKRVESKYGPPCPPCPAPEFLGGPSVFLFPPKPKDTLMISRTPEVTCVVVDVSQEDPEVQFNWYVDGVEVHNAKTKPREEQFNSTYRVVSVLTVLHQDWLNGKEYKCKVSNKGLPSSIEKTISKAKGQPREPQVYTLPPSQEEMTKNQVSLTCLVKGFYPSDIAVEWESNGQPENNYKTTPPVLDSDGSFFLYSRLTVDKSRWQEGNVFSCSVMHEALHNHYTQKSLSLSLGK
light: DVVMTQSPPSLPVTLGQSASISCKSSESLLHSNANTYLYWFQQRPGQSPQLLIYRGSNLASGVPDRFSGSGSGTDFTLKISRVEAEDVGVYYCMQHLRNPYTFGQGTKVEIKRTVAAPSVFIFPPSDEQLKSGTASVVCLLNNFYPREAKVQWKVDNALQSGNSQESVTEQDSKDSTYSLSSTLTLSKADYEKHKVYACEVTHQGLSSPVTKSFNRGEC
notes: also called lead anti-hIL-33 IgG4 antibody
In assay [16], B4 came in with a Kd of 0.209 nM, an off-rate constant (koff) of 0.000695 s⁻¹ and an on-rate constant (kon) of 3.33e+06 M⁻¹ s⁻¹. For the same molecule, in assay [17], the “IC50, inhibition of hIL-33-induced IFNγ secretion from primary human NK cells” value is 1 nM; the “IC50, inhibition of hIL-33-induced hIL-5 secretion from primary human ILC2 cells” value stood at 2.39 nM; the “IC50, inhibition of hIL-33-induced p38 MAPK phosphorylation in ILC2s (FIG. 17C)” value was 0.33 nM; the “IC50, inhibition of hIL-33-induced p38 MAPK phosphorylation in ILC2s (FIG. 17D)” value turned out to be 0.82 nM. In [18], the “IC50, inhibition of cyIL-33-induced p38 MAPK phosphorylation in ILC2s (FIG. 17D)” value is 4.4 nM. In assay [19], this molecule returned a Kd of 5.14 nM, a dissociation rate constant (koff) of 0.00191 s⁻¹ and a kon of 371000 M⁻¹ s⁻¹. The “fold improvement of affinity against parental antibody QB11119” value in [20] was about 3 fold.

B5: humanized anti-hIL-33 antibody QB11004 (antibody, human IgG1, kappa, V domains shown)
VH: EVQLLESGGGLVQPGGSLRLSCAASGFTFYSSAMSWVRQTQGKGLEWVSTISSGGSNTYYPDSVKGRFTISRDNSKNTLYLQMNSLGAEDTAVYYCASAYYGRRYDAMDYWGQGTLVTVSS
VL: DVVMTQSPPSLPVTLGQSASISCKSSKSLLHSNGNTYLYWFQQRPGQSPQLLIYRMSNLASGVPDRFSGSGSGTDFTLKISRVEAEDVGVYYCMQHLENPYTFGQGTKVEIKR
As to B5, the IC50 (commonly the point on the concentration scale where inhibition reaches its midpoint) in assay [21] stood at 0.927 nM. In assay [16], this molecule had an equilibrium dissociation constant (Kd) of 0.387 nM, a koff of 0.000628 s⁻¹ and a kon of 1.62e+06 M⁻¹ s⁻¹. In assay [19], the Kd stood at 6.22 nM, the off-rate constant (koff) was 0.000992 s⁻¹ and the kon came to 160000 M⁻¹ s⁻¹.

B6: anti-hIL-33 antibody QB11119 (antibody, human IgG1, kappa, L234A L235A, V domains shown)
VH: EVQLLESGGGLVQPGGSLRLSCAASGFTFYSSAMSWVRQTQGKGLEWVSTISSGGSNTYYPDSVKGRFTISRDNSKNTLYLQMNSLGAEDTAVYYCASAYYGRRYDAMDYWGQGTLVTVSS
VL: DVVMTQSPPSLPVTLGQSASISCKSSKSLLHSNANTYLYWFQQRPGQSPQLLIYRMSNLASGVPDRFSGSGSGTDFTLKISRVEAEDVGVYYCMQHLENPYTFGQGTKVEIKR
notes: hIgG1 with L234A+L235A+P329A; G29A in the VL against QB11061; also called parental antibody QB11119
Regarding B6, in [16], binding was characterised by a dissociation constant (Kd) of 0.397 nM, the koff amounted to 0.000604 s⁻¹ and the kon worked out at 1.52e+06 M⁻¹ s⁻¹. Also, in [19], binding was put at a Kd of 15.8 nM, the koff was 0.00206 s⁻¹ and the kon came out at 131000 M⁻¹ s⁻¹.

B7: anti-hIL-33 antibody QB11061 (antibody, human IgG1, kappa, V domains shown)
VH: EVQLLESGGGLVQPGGSLRLSCAASGFTFYSSAMSWVRQTPGKGLEWVSTISSGGSNTYYPDSVKGRFTISRDNSKNTLYLQMNSLGAEDTAVYYCASAYYGRRYDAMDYWGQGTLVTVSS
VL: DVVMTQSPPSLPVTLGQSASISCKSSKSLLHSNGNTYLYWFQQRPGQSPQLLIYRMSNLASGVPDRFSGSGSGTDFTLKISRVEAEDVGVYYCMQHLENPYTFGQGTKVEIKR
notes: QB11004 with Q41P in VH-FW2
Take B7: in [16], binding was put at a Kd of 0.306 nM, the off-rate constant (koff) is 0.000567 s⁻¹ and the kon is 1.85e+06 M⁻¹ s⁻¹. In [19], this molecule yielded a Kd of 4.75 nM, a koff of 0.000893 s⁻¹ and a kon of 188000 M⁻¹ s⁻¹.
